The target of experiment [1] is T1, human CD73 on the cell surface (tumor cells endogenously expressing human CD73; CHOS-human CD73) (human, UniProt P21589 27-549).
T1 construct: The endogenous CD73 of the human tumor lines (MDA-MB-231, Calu6, SK-ME-S, H2030, SKLU1, BT549, A375, HCC44) is treated as the same protein
T1 sequence: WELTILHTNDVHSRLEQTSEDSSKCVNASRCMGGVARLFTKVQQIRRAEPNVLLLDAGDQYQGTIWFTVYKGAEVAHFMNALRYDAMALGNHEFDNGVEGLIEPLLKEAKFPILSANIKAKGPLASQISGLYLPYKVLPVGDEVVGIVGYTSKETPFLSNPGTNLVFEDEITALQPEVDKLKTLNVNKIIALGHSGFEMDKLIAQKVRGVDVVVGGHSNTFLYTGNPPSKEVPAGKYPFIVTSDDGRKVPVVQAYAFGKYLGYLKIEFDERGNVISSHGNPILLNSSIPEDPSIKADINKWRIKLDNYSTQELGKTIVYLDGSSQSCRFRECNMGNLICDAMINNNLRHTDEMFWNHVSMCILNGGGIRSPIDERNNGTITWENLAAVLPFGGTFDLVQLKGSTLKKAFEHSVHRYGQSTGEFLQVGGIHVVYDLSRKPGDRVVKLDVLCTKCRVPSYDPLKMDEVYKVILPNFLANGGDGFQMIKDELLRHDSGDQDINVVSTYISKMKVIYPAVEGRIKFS
The experiment is described as follows: full-field cell scanning analyzer (Celigo), percent fluorescent cells, A375 cells endogenously expressing human CD73. How it is done:
(§1) Experimental method: 10,000 cells were plated on a flat-bottom 96-well plate with 100 μL DMEM+10% FBS/well, cultured overnight so that the cells adhered to the well, and the supernatant was discarded on the next day. Serial 3-fold dilutions of antibody for 8 points were performed by diluting ⅓ of the total volume (100 μL) in 200 μL DMEM. 100 μL of the diluted antibody was added to each well of the cell plate (the supernatants of fused clones or subclones were used for screening), 100 μL of DMEM was added to the corresponding negative control well, and incubation was performed at room temperature for 1 hour. After the supernatant was discarded, 100 μL of secondary antibody (DyLight488 goat anti-mouse IgG (Abcam, Cat. No. ab97015)) was added to each well at a concentration of 5 μg/mL (diluted in DMEM), and incubation was performed for 0.5 hours at room temperature. After staining, the supernatant was discarded, followed by washing once with PBS+2% FBS, then 100 μL of PBS+2% FBS was added to each well, and then reading was performed on analyzer. A full-field cell scanning analyzer (Nexcelom Company, model Celigo® Image Cytometer) was used to measure the reading of the experimental plate. […] The binding effect of the anti-CD73 antibody to the CD73-expressing cell line was determined according to the percentage. […]

The target in experiment [2] is T1, human CD73 on the cell surface (tumor …). The experiment is described as follows: full-field cell scanning analyzer (Celigo), percent fluorescent cells, BT549 cells endogenously expressing human CD73. How it is done: as §1
Experiment [3] shares this target. The experiment is described as follows: full-field cell scanning analyzer (Celigo), percent fluorescent cells, SKLU1 cells endogenously expressing human CD73. As to the method:
as §1

The next experiment concerns the target T2, murine CD73 on 4T1 cells (murine, UniProt Q61503 29-551).
T2 construct: whole, on cells; also called 4T1 (endogenously expressing murine CD73)
T2 sequence (looked up): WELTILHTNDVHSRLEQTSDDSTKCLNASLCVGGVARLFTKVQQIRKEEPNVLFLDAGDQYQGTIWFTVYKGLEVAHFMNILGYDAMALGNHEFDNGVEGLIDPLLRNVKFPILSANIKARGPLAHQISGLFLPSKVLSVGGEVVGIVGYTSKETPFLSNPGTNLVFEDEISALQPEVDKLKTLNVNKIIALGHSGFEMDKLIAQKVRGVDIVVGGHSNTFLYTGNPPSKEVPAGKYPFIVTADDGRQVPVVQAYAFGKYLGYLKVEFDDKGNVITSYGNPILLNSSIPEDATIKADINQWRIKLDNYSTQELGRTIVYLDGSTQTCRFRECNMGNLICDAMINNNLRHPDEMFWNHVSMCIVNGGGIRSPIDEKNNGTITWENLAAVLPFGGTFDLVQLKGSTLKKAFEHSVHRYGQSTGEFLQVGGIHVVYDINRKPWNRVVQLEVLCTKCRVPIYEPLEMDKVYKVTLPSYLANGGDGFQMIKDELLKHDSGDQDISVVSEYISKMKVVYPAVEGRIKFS
The experiment is described as follows: cell binding on adherent 4T1 cells, DyLight488 goat anti-mouse IgG, full-field cell scanning analyzer (Celigo), % fluorescent cells. As to the method: as §1

The target of experiment [4] is T1, human CD73 on the cell surface (tumor …). The experiment is described as follows: full-field cell scanning analyzer (Celigo), percent fluorescent cells, H2030 cells endogenously expressing human CD73. How it is done: as §1
Experiment [5] shares this target. The experiment is described as follows: cell binding on adherent CHOS-human CD73 cells, DyLight488 goat anti-mouse IgG, full-field cell scanning analyzer (Celigo), % fluorescent cells. As to the method:
as §1

B1: murine antibody 13D12 (antibody, V domains shown)
VH: DVKLQESGPAMVKPSQSLSLTCTVTGYSITSGYDWHWIRLFPGNKLEWMGYISYSGYTDYSPSLKSRISITHDTSKNHFFLKLHSVTTEDTATYYCTRGDHSYAMDYWGQGTSVTVS
VL: DIVMTQSHKFMSTSVGDRVSITCKASQAVGTAVAWYQQKPGQSPKLLIYWASSRHTGVPDRFTGSRSGTDFTLTISSVQSEDLADYFCQQYSSYPLTFGGGTNLEIK
notes: Mouse monoclonal antibody purified from hybridoma supernatant; also called mouse monoclonal antibody 13D12
The term EC50 denotes the midpoint of the concentration-response curve. Higher therefore signals a less potent agent. In general, EC50 (read off the curve) refers to the midpoint of the concentration-response curve. High values mean a need for much substance, low ones an effect from little substance. On to B1, for which the EC50 was 2.43 µg/mL in experiment [1], 1.78 µg/mL in experiment [2], 2.46 µg/mL in experiment [3] and 0.46 µg/mL in experiment [4]. For the same molecule, in the experiment with murine CD73 on 4T1 cells, the binding result is reported as “no binding”. The “EC50 (read off the curve)” value in experiment [5] was roughly 0.06 µg/mL.

Values taken from patent US20230312739A1 (BIOTHEUS, published 2023).
